Assays:
[1] = Pharmacokinetic study of CLDN18.2-linker conjugates (serum ELISA, NCA); type: in vivo, BALB/c mice; details: FIG. 2; CLDN18.2 conjugate of the named linker compared to the control group
Description: The in vivo pharmacokinetic profile of the CLDN18.2-linker conjugates was analyzed. Briefly, BALB/c mice were administered with the conjugates by intravenous injection at a dose of about 1 mg/kg. Then, whole blood of the animal was collected at different time points over 48 hours.
(§1) The whole blood was collected into a tube without anticoagulation and maintained at room temperature for more than 30 minutes, followed by centrifuge at approximately 5000 rpm at 4° C. for 5 minutes to obtain serum. Concentration of the conjugates in serum was then measured by ELISA using HRP-labeled goat anti-alpaca IgG VHH domain secondary antibody. The data was further analyzed using PK Solver software, and the […] (NCA) was used to evaluate the pharmacokinetic parameters, as shown in Table 7 and FIG. 2.

[2] = tested on: FAP expressing HEK293-hFAP cells; experiment: In vivo SPECT imaging of 177Lu-labeled FAP conjugates; set-up: species or system female athymic nude mice; details: FIG. 5, 30 MBq/mouse i.v., at different time points
Description: In vivo biodistribution of FAP conjugates was analyzed by SPECT imaging via ^177Lu labeling. Briefly, the FAP conjugates were labeled by ^177Lu with a molar activity of 1 MBq/μg at 37° C. for 60 min and purified by size-exclusion chromatography, followed by analysis of radioactive purity through radio-TLC and radio-HPLC on the same day of labelling. The release criteria for radio-labelled sample was ≥90% radiochemical purity.
(§2) For the imaging study, female athymic nude mice (approximately 6-8 weeks old) were each inoculated with 5×10^6 FAP expressing HEK293-hFAP cells via subcutaneous injection into the shoulder. When the tumor volume reached to about 150 to 250 mm^3, the animal was injected with the labeled conjugate at a dose of 30 MBq/mouse by a single bolus intravenous injection in tail vein. Animals were then subject to whole-body static SPECT followed by CT at different time points under isoflurane anaesthesia.

CLDN18.2 HEK293T cells = experiment: In vivo SPECT imaging of 111In-labeled CLDN18.2 conjugates; set-up: species or system female athymic nude mice; details: FIG. 4, 10 MBq/mouse i.v., over 48 hours, compared to the control group
Description: In vivo biodistribution of the CLDN18.2 conjugates was analyzed by SPECT imaging via ^111In labeling. Briefly, the CLDN18.2 conjugates were labeled by ^111In at 30° C. for 60 min and purification by NAP-5 column. followed by analysis of radioactive purity through radio-TLC and radio-HPLC on the same day of labelling. The release criteria for radio-labelled sample was ≥90% radiochemical purity.
as §2, with “CLDN18.2 HEK293T” for “FAP expressing HEK293-hFAP”, “200” for “150”, “300” for “250”, “10” for “30”, “anaesthesia. […] In addition, the tumor/kidney ratio was increased around 5-10 folds compared to the control group.” for “anaesthesia.”

[3] = Pharmacokinetic study of FAP-linker conjugates (serum ELISA, NCA); type: in vivo, BALB/c mice; details: FIG. 3; FAP conjugate of the named linker compared to the control group
Description: he in vivo pharmacokinetic profile of the FAP-linker conjugates was analyzed. Briefly, BALB/c mice were administered with the conjugates by intravenous injection at a dose of about 1 mg/kg. Then, whole blood of the animal was collected at different time periods over 48 hours.
as §1, with “centrifugated” for “centrifuge”, “8” for “7”, “3.” for “2.”

human Claudin 18.2-VLP = biological target: T1, human Claudin 18.2-VLP (human, UniProt P56856-2 1-261); experiment: ELISA, plate coated with human Claudin 18.2-VLP, HRP anti-sdAb detection
T1 construct: also called CLDN18.2
T1 sequence (looked up): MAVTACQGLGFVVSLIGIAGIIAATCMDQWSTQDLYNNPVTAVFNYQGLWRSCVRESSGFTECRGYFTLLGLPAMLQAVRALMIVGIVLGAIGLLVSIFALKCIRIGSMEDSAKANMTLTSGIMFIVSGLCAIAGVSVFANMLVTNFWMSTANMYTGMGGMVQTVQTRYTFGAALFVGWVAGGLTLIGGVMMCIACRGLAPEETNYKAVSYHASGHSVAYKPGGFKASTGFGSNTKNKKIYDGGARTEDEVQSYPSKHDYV
Description: (§3) Binding affinities of the prepared conjugates with tumor antigen was evaluated by ELISA. […] On the next day, the plate was washed by 0.05% PBST and blocked by 10% StartingBlock buffer (Thermo, #37538) at room temperature for 1 hr. Then, 100 μL of serial diluted conjugate samples in 1% StartingBlock buffer was added to the plate. The plate was further incubated at room temperature for 2 hrs under shaking at 100 rpm and washed by 0.05% PBST. Then 100 μL 0.4 μg/mL HRP-conjugated anti-sdAb secondary antibody (Jackson, #128-035-232) was added and subject to 1 hr incubation at room temperature under shaking at 100 rpm. The plate was then washed by 0.05% PBST and developed using TMB solution (KPL, #5120-00820).

human FAP-hFc = biological target: T2, human FAP-hFc (human, UniProt Q12884 26-760); experiment: ELISA, plate coated with human FAP-hFc, HRP anti-sdAb detection
T2 construct: Coated on the ELISA plate as human FAP-hFc; also called FAP-alpha; not shown: human Fc (hFc)
T2 sequence (looked up): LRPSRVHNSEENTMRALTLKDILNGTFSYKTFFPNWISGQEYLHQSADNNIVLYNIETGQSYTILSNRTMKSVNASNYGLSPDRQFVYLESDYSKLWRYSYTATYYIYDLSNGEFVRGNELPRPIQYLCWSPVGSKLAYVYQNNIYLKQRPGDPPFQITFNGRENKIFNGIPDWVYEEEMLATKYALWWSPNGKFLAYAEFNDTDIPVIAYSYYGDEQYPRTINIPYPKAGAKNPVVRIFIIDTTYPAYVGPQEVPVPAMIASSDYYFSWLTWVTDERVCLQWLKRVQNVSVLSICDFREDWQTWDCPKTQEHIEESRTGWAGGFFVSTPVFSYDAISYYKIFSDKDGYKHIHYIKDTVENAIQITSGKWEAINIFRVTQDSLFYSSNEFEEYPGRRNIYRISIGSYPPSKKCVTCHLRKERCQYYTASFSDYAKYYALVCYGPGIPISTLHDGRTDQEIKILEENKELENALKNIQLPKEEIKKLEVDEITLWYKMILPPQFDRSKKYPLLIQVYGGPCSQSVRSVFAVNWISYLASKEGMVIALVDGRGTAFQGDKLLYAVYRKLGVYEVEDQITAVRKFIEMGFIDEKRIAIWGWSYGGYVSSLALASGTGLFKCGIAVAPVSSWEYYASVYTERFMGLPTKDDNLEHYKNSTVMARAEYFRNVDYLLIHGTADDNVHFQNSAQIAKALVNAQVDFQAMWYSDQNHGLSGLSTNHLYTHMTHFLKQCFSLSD
Description: as §3

Molecule | EC50 (human Claudin 18.2-VLP) [nM] | further results
O=C(O)CCC(NC(=O)C(CCCCNC(=O)CCCc1ccc(I)cc1)NC(=O)CNC(=O)CCC(C(=O)O)N1CCN(CC(=O)O)CCN(CC(=O)O)CCN(CC(=O)O)CC1)C(=O)NCc1ccc(N=C=S)cc1 (stereo not shown) [L007] | – | blood circulation of the CLDN18.2 conjugates [1]: significantly prolonged blood circulation; retention of the FAP conjugates in tumor [2]: increasing retention; retention of the CLDN18.2 conjugates in tumor (CLDN18.2 HEK293T cells): significantly increased retention; blood circulation of the FAP conjugates [3]: significantly prolonged blood circulation
O=C(O)CN1CCN(CC(=O)O)CCN(C(CCC(=O)NCC(=O)NC(CCCCNC(=O)CCCc2ccc(I)cc2)C(=O)NCc2ccc(N=C=S)cc2)C(=O)O)CCN(CC(=O)O)CC1 (stereo not shown) [L009] | – | blood circulation of the CLDN18.2 conjugates [1]: significantly prolonged blood circulation; retention of the CLDN18.2 conjugates in tumor (CLDN18.2 HEK293T cells): significantly increased retention
CLDN18.2-DOTAGA (VHH, DOTAGA chelator conjugated to the sdAb, residue not stated; DOL 1.23, also called CLDN18.2 sdAb conjugated with DOTAGA) VHH: EVQLVESGGGLVQPGGSLRLSCAASGSFFRIVAMGWYRQAPGSQRELVATITRGGSTYYADSVKGRFTISRDNAKNTLYLQMNSLRAEDTAVYYCNVRVEVPFMQPNDYWGQGTLVTVSS | 0.84 | –
CLDN18.2-L001 (VHH, functional linker L001 conjugated to the sdAb, residue not stated; DOL 1.13, also called CLDN18.2 sdAb-linker L001 conjugate) VHH: EVQLVESGGGLVQPGGSLRLSCAASGSFFRIVAMGWYRQAPGSQRELVATITRGGSTYYADSVKGRFTISRDNAKNTLYLQMNSLRAEDTAVYYCNVRVEVPFMQPNDYWGQGTLVTVSS | 1.75 | –
CLDN18.2-L004 (VHH, functional linker L004 conjugated to the sdAb, residue not stated; DOL 1.37, also called CLDN18.2 sdAb-linker L004 conjugate) VHH: EVQLVESGGGLVQPGGSLRLSCAASGSFFRIVAMGWYRQAPGSQRELVATITRGGSTYYADSVKGRFTISRDNAKNTLYLQMNSLRAEDTAVYYCNVRVEVPFMQPNDYWGQGTLVTVSS | 3.47 | –
CLDN18.2-L007 (VHH, functional linker L007 conjugated to the sdAb, residue not stated; DOL 1.69, also called CLDN18.2 sdAb-linker L007 conjugate; linker 007 conjugate) VHH: EVQLVESGGGLVQPGGSLRLSCAASGSFFRIVAMGWYRQAPGSQRELVATITRGGSTYYADSVKGRFTISRDNAKNTLYLQMNSLRAEDTAVYYCNVRVEVPFMQPNDYWGQGTLVTVSS | 7.41 | –
CLDN18.2-L010 (VHH, functional linker L010 conjugated to the sdAb, residue not stated; DOL 1.54, also called CLDN18.2 sdAb-linker L010 conjugate; linker 010 conjugate) VHH: EVQLVESGGGLVQPGGSLRLSCAASGSFFRIVAMGWYRQAPGSQRELVATITRGGSTYYADSVKGRFTISRDNAKNTLYLQMNSLRAEDTAVYYCNVRVEVPFMQPNDYWGQGTLVTVSS | 2.31 | –
CLDN18.2-L009 (VHH, functional linker L009 conjugated to the sdAb, residue not stated; DOL 1.77, also called CLDN18.2 sdAb-linker L009 conjugate; linker 009 conjugate) VHH: EVQLVESGGGLVQPGGSLRLSCAASGSFFRIVAMGWYRQAPGSQRELVATITRGGSTYYADSVKGRFTISRDNAKNTLYLQMNSLRAEDTAVYYCNVRVEVPFMQPNDYWGQGTLVTVSS | 3.11 | –
CLDN18.2-L002 (VHH, functional linker L002 conjugated to the sdAb, residue not stated; DOL 1.18, also called CLDN18.2 sdAb-linker L002 conjugate) VHH: EVQLVESGGGLVQPGGSLRLSCAASGSFFRIVAMGWYRQAPGSQRELVATITRGGSTYYADSVKGRFTISRDNAKNTLYLQMNSLRAEDTAVYYCNVRVEVPFMQPNDYWGQGTLVTVSS | 2.18 | –
CLDN18.2-L012 (VHH, functional linker L012 conjugated to the sdAb, residue not stated; DOL 1.65, also called CLDN18.2 sdAb-linker L012 conjugate) VHH: EVQLVESGGGLVQPGGSLRLSCAASGSFFRIVAMGWYRQAPGSQRELVATITRGGSTYYADSVKGRFTISRDNAKNTLYLQMNSLRAEDTAVYYCNVRVEVPFMQPNDYWGQGTLVTVSS | 1.93 | –
FAP-L007 (VHH, functional linker L007 conjugated to the sdAb, residue not stated; DOL 0.68, also called FAP sdAb-linker L007 conjugate) VHH: QVQLLESGGGLVQPGGSLRLSCAASGFGFGNSLMSWVRRAPGKGLEWVSTIYPRGSFTDYADSVKGRFTISRDNSRNTLYLQMNSLRAEDTAVYYCATGWGRSSDYDPPGQGTLVTVSS | – | EC50 (human FAP-hFc): 0.0603 nM
FAP-DOTAGA (VHH, DOTAGA chelator conjugated to the sdAb, residue not stated; DOL 0.42, also called FAP sdAb conjugated with DOTAGA (control)) VHH: QVQLLESGGGLVQPGGSLRLSCAASGFGFGNSLMSWVRRAPGKGLEWVSTIYPRGSFTDYADSVKGRFTISRDNSRNTLYLQMNSLRAEDTAVYYCATGWGRSSDYDPPGQGTLVTVSS | – | EC50 (human FAP-hFc): 0.0553 nM

— patent US20260216366A1, “CONJUGATE AND USES THEREOF” (Full-Life Technologies UK Limited, priority 2022, published 2026)
